The sequences below were run on CcNsdD2-C (C-terminal DNA-binding domain of CcNsdD2) (Coprinopsis cinerea AmutBmut (pab1-1)), ORF:b1e54c23 (assay: EMSA). Settings: EMSA: 30 uL, 1x EMSA binding buffer (composition not given), 1.5 ug salmon sperm DNA, 50 ng probe, 4 ug CcNsdD2-C, 37 C 30 min; 5% PAGE in 1x TBE pH 8.3.
Chain of CcNsdD2-C (C-terminal DNA-binding domain of CcNsdD2) (Coprinopsis cinerea AmutBmut (pab1-1)), ORF:b1e54c23 (chain, as listed by the source): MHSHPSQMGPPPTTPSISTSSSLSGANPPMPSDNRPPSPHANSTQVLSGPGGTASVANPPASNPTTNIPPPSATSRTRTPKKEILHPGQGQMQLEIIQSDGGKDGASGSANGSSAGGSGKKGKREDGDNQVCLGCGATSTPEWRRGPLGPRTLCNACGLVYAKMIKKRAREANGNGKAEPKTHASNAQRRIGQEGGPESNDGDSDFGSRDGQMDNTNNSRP

binding, binds:
AGCACGTGGTCGAAAGTTCGCAATTTCATTGCATCCCTGAGCCACCTGACCACCGGAGATCGCTGAATATTGCTTGGGCCAGATATGACCAGAGTTAGCTTGATAGATCGGCATCCCCAATGACGGAGATGAAGTCGGAAGAGCCGAATCCTTTCGACCACGTGCT (double strand) [cgl1 promoter probe]
AGCACGTGGTCGAAAGTCAGACGAAATCGCCGATTCGCCGAACTCAAGGCCAAATGCATTTTAAACTCCGATCTCGGTGGGTCGCTCACCGATAGATCTCAAAACGATTTCGTTTCTGTGACGAGCATGGCTTCGACGCATTATCCAACGGCTCCTTTCGACCACGTGCT (double strand) [nsdD1 promoter probe]
AGCACGTGGTCGAAAGCCGTGGTTGGGCAGATGTGGTGGGTGAAGATCGGCAAAAATAACAGGACGCGATCTATGAAAAGTCACGGATTCGCGAAGGGGGCAAATAGATCGCGTAGGAGCAAAAGGCGTGTGCATCGCGCGCTTTGGTTACTTTCGACCACGTGCT (double strand) [cfs1 promoter probe]
AGCACGTGGTCGAAAGGAAGTTGCTGTATACTCGATGACACTCAAGAGTGAGAGGGTTTCGGCCCGTGAGAGTTTCAAGCGGAGATCAAAAGCGATACAGTGATTAGATTAAAACAACGAGTAGATAAGATGGAGATCTTTCGACCACGTGCT (double strand) [cfs2 promoter probe]
AGCACGTGGTCGAAAGCGTACTGTGGAGCAGGGAGAACGTTTGAAGATACCGAAGAAGCATCGGCTAGACCAAATCAAGCAGATCGGTGTACAGATATAGAATGTTTAGCTTGTTATTCGGTTCCAAGGAATACAGTCACAGCTCAGGAGCTTTCGACCACGTGCT (double strand) [hyd1 promoter probe]
